Test results as given in US8298545B2, “Anti-autoimmune antibodies for treatment of pemphigus” (The Trustees of the University of Pennsylvania, priority 2007, dated 2012).

Tested on: primary human epidermal keratinocytes
Experiment: Keratinocyte dissociation (dispase) assay
Type: cell-based
Conditions: FIG. 5M-5O
Procedure: The keratinocyte dissociation assay was performed as previously described (Payne et al., 2005), using either PV scFv at 5 μg/mL or PV sera at dilutions of 1:5 to 1:7.5 in 500 μL total volume defined keratinocyte-serum free media (Gibco/Invitrogen). For antibodies that only recognize Dsg3, 1 μg/mL exfoliative toxin A (ETA) was added to wells for the last two hours. For antisera depletion assays, 200 μL of PV sera flowthrough (representing a volume of 100 μL, sera, combined with the first 1-volume fraction of the PBS wash) were incubated with cells in a total volume of 500 μL, with or without ETA treatment. Dissociation assays used the total eluate from the antisera columns, concentrated to a volume of 100 μl (representing a starting volume of 250 μL sera).
The question of whether the in vitro inhibition of Dsg binding by ELISA translated into a functional block of antibody pathogenicity was investigated. It was previously shown that neonatal mouse injection is suboptimal for evaluation of pathogenicity of PV mAbs, due to differences in the specificity of mAbs for human versus mouse Dsg substrates. Therefore, the inhibition of mAb pathogenicity was evaluated by a dispase assay using cultured primary human keratinocytes. […]

B1: Exfoliative toxin A: exfoliative toxin A, inactivates Dsg1 (protein, UniProt P09331 39-280, looked up)
Exfoliative toxin A: EVSAEEIKKHEEKWNKYYGVNAFNLPKELFSKVDEKDRQKYPYNTIGNVFVKGQTSATGVLIGKNTVLTNRHIAKFANGDPSKVSFRPSINTDDNGNTETPYGEYEVKEILQEPFGAGVDLALIRLKPDQNGVSLGDKISPAKIGTSNDLKDGDKLELIGYPFDHKVNQMHRSEIELTTLSRGLRYYGFTVPGNSGSGIFNSNGELVGIHSSKVSHLDREHQINYGVGIGNYVKRIINEKNE
- pathogenicity in the keratinocyte dissociation (dispase) assay: do not demonstrate significant pathogenicity
